# Laboratory results: patent US20240026004A1 (SHANGHAI HUAOTA BIOPHARMACEUTICAL, published 2024)
# Substitutions are numbered along the chain they refer to.
# T1: Rabbit PD-L1 (rabbit, UniProt G1SUI3 19-236)
# T1 construct: also called PD-L1 in rabbits
# T1 sequence: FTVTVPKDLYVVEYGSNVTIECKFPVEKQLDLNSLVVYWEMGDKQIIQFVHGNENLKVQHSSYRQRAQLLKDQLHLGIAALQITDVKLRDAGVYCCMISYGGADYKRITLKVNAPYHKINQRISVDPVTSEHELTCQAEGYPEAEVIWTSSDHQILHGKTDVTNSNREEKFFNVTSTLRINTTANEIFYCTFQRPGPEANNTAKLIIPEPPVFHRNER
# T2: Human TGF-β2 (human, UniProt P61812 303-414)
# T2 sequence (looked up): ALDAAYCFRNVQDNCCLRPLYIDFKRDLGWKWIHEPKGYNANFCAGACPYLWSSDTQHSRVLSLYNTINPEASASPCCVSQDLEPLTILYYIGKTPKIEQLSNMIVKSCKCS
# T3: Mouse/Rat TGF-β2 (mouse/rat, UniProt P27090 303-414)
# T3 sequence (looked up): T2 sequence (looked up) with S59T, R60K, K94N
# T4: human TGF-β3 (human, UniProt P10600 301-412)
# T4 construct: also called TGF-β3 (R&D, 8420-B3-025)
# T4 sequence (looked up): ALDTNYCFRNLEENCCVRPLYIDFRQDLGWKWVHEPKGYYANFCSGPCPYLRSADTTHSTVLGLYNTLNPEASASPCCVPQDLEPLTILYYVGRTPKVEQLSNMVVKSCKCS
# B1: HB0028 (bispecific antibody, human IgG1, kappa)
# heavy: not shown
# light: DVVMTQTPLSLSVTPGQPASISCKSSQSLANSYGNTYLSWYLHKPGQSPQLLIYGISNRFSGVPDRFSGSGSGTDFTLKISRVEAEDVGVYYCLQGTHQPPTFGQGTKLEIKRTVAAPSVFIFPPSDEQLKSGTASVVCLLNNFYPREAKVQWKVDNALQSGNSQESVTEQDSKDSTYSLSSTLTLSKADYEKHKVYACEVTHQGLSSPVTKSFNRGEC
# notes: also called N-fusion PD-L1/TGF-β bispecific antibody; heavy chain 500054 + light chain 400085
# B2: HB0029 (bispecific antibody, human IgG1, kappa)
# heavy: not shown
# light: B1 light
# notes: Heavy chain from N to C: VH of HB0023, wild-type human IgG1 constant region, GS linker, human TGF-βRII ECD 24-159; Same light chain as HB0028; also called C-fusion PD-L1/TGF-β bispecific antibody; heavy chain 500055 + light chain 400085
# B3: TGFβRII (Fc fusion)
# chain: TIPPHVQKSVNNDMIVTDNNGAVKFPQLCKFCDVRFSTCDNQKSCMSNCSITSICEKPQEVCVAVWRKNDENITLETVCHDPKLPYHDFILEDAASPKCIMKEKKKPGETFFMCSCSSDECNDNIIFSEEYNTSNPD
# Tests used:
# [1] = target: T5, human PD-L1 on CHO-K1 cells (human, UniProt Q9NZQ7 19-290); test: flow cytometry on CHO-K1 cells overexpressing human PD-L1, PE anti-human IgG detection, median fluorescence intensity
# T5 construct: whole, on cells; also called CHO-K1 cells overexpressing human PD-L1; CHO-K1-OS8-PD-L1-8D6 cells
# T5 sequence (Q9NZQ7 19-290): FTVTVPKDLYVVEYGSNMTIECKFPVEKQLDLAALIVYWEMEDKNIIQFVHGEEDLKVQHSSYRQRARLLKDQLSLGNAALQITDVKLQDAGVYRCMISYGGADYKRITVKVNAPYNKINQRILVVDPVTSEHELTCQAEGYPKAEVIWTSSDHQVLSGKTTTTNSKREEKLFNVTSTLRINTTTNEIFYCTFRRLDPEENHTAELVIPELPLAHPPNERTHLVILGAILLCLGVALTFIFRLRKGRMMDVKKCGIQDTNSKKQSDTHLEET
# Procedure: CHO-K1 cells overexpressing human PD-L1 were taken and resuspended to 1×10⁶/ml and added into a 96-well plate at 20 μl/well.
# [2] = target: T5, human PD-L1 on CHO-K1 cells; test: dual-target flow cytometry: sample pre-mixed with 3 µg/ml human TGF-β1, then CHO-K1 cells overexpressing human PD-L1, detection with PE anti-human TGF-β1 antibody (signal needs PD-L1 and TGF-β1 bound at once)
# Procedure: After then, CHO-K1 cells overexpressing human PD-L1 were taken and resuspended to 1×10⁶/ml, added into a 96-well plate at 20 μl/well, and incubated for min after being mixed uniformly. The plate was washed twice by centrifugation with 1% BSA-PBS. Into each well was added 20 μl of PE fluorescence labeled anti-human TGF-β1 secondary antibody (1:100), incubated at room temperature for 15 min, washed three times by centrifugation, and then tested for the emission intensity at 580 nm by a flow cytometer Canto II (BD).
# human TGF-β1 [3] = target: T6, human TGF-β1 (human, UniProt P01137 279-390); test: ELISA, TGF-β1 coated at 0.5 µg/ml, HRP anti-human IgG detection, OD450
# T6 construct: also called TGF-β1 (ACRO, TG1-H4212); free TGF-β protein
# T6 sequence (P01137 279-390 limits assumed): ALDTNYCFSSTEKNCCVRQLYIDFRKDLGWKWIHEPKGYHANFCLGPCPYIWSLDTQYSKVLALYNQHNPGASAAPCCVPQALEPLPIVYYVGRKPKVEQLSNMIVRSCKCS
# Procedure: (§1) After washing with PBST, into the plates was added HRP-labeled anti-human IgG secondary antibody (1:5000 dilution) at 100 μl/well, reacted at room temperature for 30 min, and then washed with PBST. After developing with TMB color development solution for 5 min, the reaction was terminated with sulfuric acid, and OD450 value was read by a microplate reader.
# [4] = target: Human PD-L1 (BIAcore analyte) (human, UniProt Q9NZQ7 19-238, limits assumed); test: SPR (BIAcore), HB0028 captured on anti-human IgG (Fc) chip, PD-L1 as analyte, 1:1 fit
# Sequence of Human PD-L1 (BIAcore analyte) (Q9NZQ7 19-238 limits assumed): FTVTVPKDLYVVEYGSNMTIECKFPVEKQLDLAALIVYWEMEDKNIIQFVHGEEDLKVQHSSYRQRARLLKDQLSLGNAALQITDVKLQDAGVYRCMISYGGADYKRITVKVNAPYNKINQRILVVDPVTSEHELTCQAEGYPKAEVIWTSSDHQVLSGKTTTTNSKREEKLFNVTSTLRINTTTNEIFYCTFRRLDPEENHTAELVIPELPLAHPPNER
# Procedure: (§2) Flow rate: 30 μl/min, binding: 120 s, dissociation: 600 s, analyzing the kinetic constants by Fit local using a 1:1 binding mode.
# Monkey PD-L1 = target: T7, Monkey PD-L1 (monkey); test: as above
# T7 construct: also called PD-L1 in monkeys
# Procedure: as §2
# Rabbit PD-L1 = target: T1, Rabbit PD-L1; test: SPR (BIAcore), HB0028 captured on anti-human IgG (Fc) chip, PD-L1 as analyte
# Procedure: as §2
# Rat PD-L1 = target: T8, Rat PD-L1 (rat, UniProt D4AE25 19-239); test: as above
# T8 construct: also called PD-L1 in rats
# T8 sequence (D4AE25 entry or part of it limits assumed): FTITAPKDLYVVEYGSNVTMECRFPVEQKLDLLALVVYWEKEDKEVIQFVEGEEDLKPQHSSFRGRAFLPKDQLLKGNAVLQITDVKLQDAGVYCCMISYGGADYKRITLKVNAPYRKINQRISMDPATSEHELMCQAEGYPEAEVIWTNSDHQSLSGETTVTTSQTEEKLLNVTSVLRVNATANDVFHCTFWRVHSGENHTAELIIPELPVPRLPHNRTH
# Procedure: as §2
# Mouse PD-L1 = target: T9, Mouse PD-L1 (mouse, UniProt Q9EP73 19-238, limits assumed); test: as above
# T9 construct: also called PD-L1 in mice
# T9 sequence (Q9EP73 19-238 limits assumed): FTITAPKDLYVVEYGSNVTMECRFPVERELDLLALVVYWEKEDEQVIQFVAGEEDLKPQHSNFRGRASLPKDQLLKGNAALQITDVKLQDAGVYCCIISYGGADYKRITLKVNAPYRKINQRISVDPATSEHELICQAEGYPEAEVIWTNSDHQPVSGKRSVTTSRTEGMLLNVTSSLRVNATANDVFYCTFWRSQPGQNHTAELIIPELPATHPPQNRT
# Procedure: as §2
# Human TGF-β2 = target: T2, Human TGF-β2; test: SPR (BIAcore), HB0028 captured on Protein A chip, TGF-β protein as analyte, 1:1 fit
# Procedure: as §2
# human TGF-β1 [5] = target: T6, human TGF-β1; test: as above
# Procedure: as §2
# Mouse/Rat TGF-β1 = Mouse/Rat TGF-β1 (mouse/rat, UniProt P04202 279-390); test: as above
# Sequence of Mouse/Rat TGF-β1 (P04202 279-390 limits assumed): as the sequence (P01137 279-390 limits assumed) above, with A75S counted along it
# Procedure: as §2
# Mouse/Rat TGF-β2 = target: T3, Mouse/Rat TGF-β2; test: as above
# Procedure: as §2
# Mouse precursor TGF-β1 = target: T10, Mouse precursor TGF-β1 (mouse, UniProt P04202 30-390, limits assumed); test: SPR (BIAcore), HB0028 captured on Protein A chip, TGF-β protein as analyte
# T10 construct: Latent/precursor form as printed; also called Mouse Latent TGF-β1
# T10 sequence (P04202 30-390 limits assumed): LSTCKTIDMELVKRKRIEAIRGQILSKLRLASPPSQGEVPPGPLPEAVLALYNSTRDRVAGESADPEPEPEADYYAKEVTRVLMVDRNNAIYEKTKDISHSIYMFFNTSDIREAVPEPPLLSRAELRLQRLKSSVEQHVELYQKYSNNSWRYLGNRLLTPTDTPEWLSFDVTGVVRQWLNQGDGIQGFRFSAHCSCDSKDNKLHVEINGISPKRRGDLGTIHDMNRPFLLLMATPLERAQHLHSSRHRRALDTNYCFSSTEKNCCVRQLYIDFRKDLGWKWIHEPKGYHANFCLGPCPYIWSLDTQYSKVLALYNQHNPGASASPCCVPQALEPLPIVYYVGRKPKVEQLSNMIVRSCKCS
# Procedure: as §2
# Human LAP = target: T11, Human LAP (human, UniProt P01137 30-278); test: as above
# T11 construct: domain: LAP; also called precursor of TGF-β1 (Human LAP)
# T11 sequence (P01137 30-278 limits assumed): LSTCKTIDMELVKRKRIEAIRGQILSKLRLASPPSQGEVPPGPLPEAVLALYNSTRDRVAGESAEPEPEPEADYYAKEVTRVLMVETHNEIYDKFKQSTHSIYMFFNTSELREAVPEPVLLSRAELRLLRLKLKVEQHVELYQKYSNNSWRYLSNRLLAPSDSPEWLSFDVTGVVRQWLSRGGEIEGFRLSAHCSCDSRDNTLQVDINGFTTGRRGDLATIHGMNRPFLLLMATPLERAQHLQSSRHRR
# Procedure: as §2
# human TGF-β3 = target: T4, human TGF-β3; test: ELISA, TGF-β3 coated at 0.5 µg/ml, HRP anti-human IgG detection, OD450
# Procedure: as §1
Binder,EC50 [1] [nM],EC50 [2] [nM],EC50 (human TGF-β1 [3]) [nM],Kd [4] [nM],Kd (Monkey PD-L1) [nM],binding result (Rabbit PD-L1),binding result (Rat PD-L1),binding result (Mouse PD-L1),Kd (Human TGF-β2) [nM],Kd (human TGF-β1 [5]) [nM],Kd (Mouse/Rat TGF-β1) [nM],Kd (Mouse/Rat TGF-β2) [nM],binding result (Mouse precursor TGF-β1),binding result (Human LAP),EC50 (human TGF-β3) [nM]
B1,3.77,4.22,0.347,2.45,5.87,no binding,no binding,no binding,1.56,0.0114,0.00275,1.97,no binding,no binding,
B2,1.85,1.61,0.955,,,,,,,,,,,,1.51
B3,,,0.652,,,,,,,,,,,,
